These results are taken from paper PMC8440396 (Nature cell biology, 2021).

Assay in all cases: pull-down
One assay addresses T1, Flag-TRIM15 (human, UniProt Q9C019 1-465).
T1 sequence: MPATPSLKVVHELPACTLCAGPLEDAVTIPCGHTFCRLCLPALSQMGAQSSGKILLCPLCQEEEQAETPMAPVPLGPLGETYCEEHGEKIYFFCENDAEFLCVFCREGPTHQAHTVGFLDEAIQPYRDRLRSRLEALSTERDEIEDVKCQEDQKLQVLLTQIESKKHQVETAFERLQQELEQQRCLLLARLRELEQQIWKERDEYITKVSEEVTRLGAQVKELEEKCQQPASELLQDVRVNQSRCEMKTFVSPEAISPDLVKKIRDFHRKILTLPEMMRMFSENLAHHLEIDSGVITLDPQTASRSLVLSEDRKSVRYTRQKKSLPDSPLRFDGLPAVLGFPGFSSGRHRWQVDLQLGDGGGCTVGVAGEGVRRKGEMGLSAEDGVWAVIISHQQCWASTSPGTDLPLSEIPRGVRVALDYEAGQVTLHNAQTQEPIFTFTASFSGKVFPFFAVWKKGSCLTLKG

For assay [1], the target named is T2, Flag-CYLD^4A (K767A/K768A/L773A/L775A) (human, UniProt Q9NQC7 1-956, K767A | K768A | L773A | L775A).
T2 sequence: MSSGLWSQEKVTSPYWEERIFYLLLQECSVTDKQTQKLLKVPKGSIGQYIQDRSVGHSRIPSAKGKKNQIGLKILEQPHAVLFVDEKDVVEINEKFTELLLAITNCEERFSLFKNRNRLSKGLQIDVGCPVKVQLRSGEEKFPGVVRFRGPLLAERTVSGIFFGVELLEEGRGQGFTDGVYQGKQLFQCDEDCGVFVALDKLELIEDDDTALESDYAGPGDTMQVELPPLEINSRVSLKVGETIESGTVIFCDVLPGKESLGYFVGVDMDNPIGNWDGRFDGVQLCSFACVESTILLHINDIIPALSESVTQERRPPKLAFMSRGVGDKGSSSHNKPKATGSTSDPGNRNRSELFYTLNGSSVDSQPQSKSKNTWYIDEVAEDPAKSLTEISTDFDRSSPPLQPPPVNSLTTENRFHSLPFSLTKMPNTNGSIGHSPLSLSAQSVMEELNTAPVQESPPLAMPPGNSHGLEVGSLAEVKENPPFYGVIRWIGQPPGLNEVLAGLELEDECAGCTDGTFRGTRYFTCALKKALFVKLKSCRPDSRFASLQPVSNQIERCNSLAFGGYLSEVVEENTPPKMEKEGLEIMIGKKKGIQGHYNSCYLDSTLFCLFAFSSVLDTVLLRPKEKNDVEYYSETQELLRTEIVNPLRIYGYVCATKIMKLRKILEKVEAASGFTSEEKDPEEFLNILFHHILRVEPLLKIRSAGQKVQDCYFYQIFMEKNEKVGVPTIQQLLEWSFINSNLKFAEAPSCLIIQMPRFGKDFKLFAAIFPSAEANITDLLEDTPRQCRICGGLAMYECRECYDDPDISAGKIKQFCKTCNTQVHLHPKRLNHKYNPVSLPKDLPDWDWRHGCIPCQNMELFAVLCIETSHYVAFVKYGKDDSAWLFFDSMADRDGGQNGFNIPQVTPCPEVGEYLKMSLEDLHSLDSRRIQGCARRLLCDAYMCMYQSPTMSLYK

In a further assay the target is T3, Flag-CYLD (human, UniProt Q9NQC7 1-956).
T3 sequence: T2 sequence with A767K, A768K, A773L, A775L

A further assay deals with Flag-ERK1 (human, UniProt P27361 1-379).
For the next assay, the target named is Flag-ERK1^K302R (human, UniProt P27361 1-379, K302R).

Where a chain is given by its changes, count along the chain named.

B1: GST-ERK1 (enzyme)
chain: MAAAAAQGGGGGEPRRTEGVGPGVPGEVEMVKGQPFDVGPRYTQLQYIGEGAYGMVSSAYDHVRKTRVAIKKISPFEHQTYCQRTLREIQILLRFRHENVIGIRDILRASTLEAMRDVYIVQDLMETDLYKLLKSQQLSNDHICYFLYQILRGLKYIHSANVLHRDLKPSNLLINTTCDLKICDFGLARIADPEHDHTGFLTEYVATRWYRAPEIMLNSKGYTKSIDIWSVGCILAEMLSNRPIFPGKHYLDQLNHILGILGSPSQEDLNCIINMKARNYLQSLPSKTKVAWAKLFPKSDSKALDLLDRMLTFNPNKRITVEEALAHPYLEQYYDPTDEPVAEEPFTFAMELDDLPKERLKELIFQETARFQPGVLEAP
Regarding B1, the binding result (in the assay with Flag-TRIM15; in assay [1]; in the assay with Flag-CYLD) was “binds” in each case.

B2: GST-ELK-1 (aa 307-428) (domain or fragment)
chain: ISQPQKGRKPRDLELPLSPSLLGGPGPERTPGSGSGSGLQAPGPALTPSLLPTHTLTPVLLTPSSLPPSIHFWSTLSPIAPRSPAKLSFQFPSSGSAQVHIPSISVDGLSTPVVLSPGPQKP
Take B2: the binding result with Flag-ERK1 and with Flag-ERK1^K302R was “binds” each time.
